Experimental data: US20230183352A1 (published 2023)

Tests used:
[1] = molecular target: T1, Claudin 18.2 (CLDN18.2), expressed on CHOS-CLDN 18.2 / HEK293-CLDN 18.2 / HCC827-CLDN 18.2 cells (human, UniProt P56856-2 1-261); assay: FACS, CHOS-CLDN18.2 cells
T1 construct: whole, on cells; The species is not repeated for the CHOS-CLDN 18.2 cells; also called claudin-18A2

[2] = molecular target: T1, Claudin 18.2 (CLDN18.2), expressed on …; assay: FACS, CHOS-CLDN18.2 cells, 5 µg/ml
[3] = molecular target: T1, Claudin 18.2 (CLDN18.2), expressed on …; assay: FACS, CHOS-CLDN18.2 cells, 20 µg/ml
[4] = molecular target: T1, Claudin 18.2 (CLDN18.2), expressed on …; assay: FACS, CHOS-CLDN18.2 cells, 10 µg/ml
[5] = molecular target: T1, Claudin 18.2 (CLDN18.2), expressed on …; assay: FACS, CHOS-CLDN18.2 cells, 0.005 µg/ml
[6] = molecular target: T1, Claudin 18.2 (CLDN18.2), expressed on …; assay: FACS, CHOS-CLDN18.2 cells, 0.020 µg/ml
[7] = molecular target: T1, Claudin 18.2 (CLDN18.2), expressed on …; assay: FACS, CHOS-CLDN18.2 cells, 0.078 µg/ml
[8] = molecular target: T1, Claudin 18.2 (CLDN18.2), expressed on …; assay: FACS, CHOS-CLDN18.2 cells, 0.313 µg/ml
[9] = molecular target: T1, Claudin 18.2 (CLDN18.2), expressed on …; assay: FACS, CHOS-CLDN18.2 cells, 1.250 µg/ml
[10] = molecular target: T1, Claudin 18.2 (CLDN18.2), expressed on …; assay: FACS, CHOS-CLDN18.2 cells, 0 µg/ml (background)
[11] = molecular target: T1, Claudin 18.2 (CLDN18.2), expressed on …; assay: FACS, MFI on CHOS-CLDN18.2 over MFI on CHOS-CLDN18.1, 10 µg/ml
[12] = molecular target: T2, PD-L1 Protein, Cynomolgus, Recombinant (His Tag) (cynomolgus, UniProt G7PSE7 19-239); assay: SPR, Biacore T200, antibody captured
T2 construct: Bought protein; also called QPP10.1; cynoPD-L1; not shown: His tag
T2 sequence (G7PSE7 entry or part of it): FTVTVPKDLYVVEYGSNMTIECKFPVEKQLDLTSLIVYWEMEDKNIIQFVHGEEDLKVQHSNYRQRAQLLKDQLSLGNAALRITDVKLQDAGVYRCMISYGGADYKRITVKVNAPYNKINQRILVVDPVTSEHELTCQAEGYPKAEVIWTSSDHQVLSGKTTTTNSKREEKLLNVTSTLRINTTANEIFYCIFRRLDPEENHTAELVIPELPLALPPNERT

[13] = molecular target: T3, Biotin QP004.3 (biotin-PDL1-FC) (human, UniProt Q9NZQ7 19-238, limits assumed, biotinylated (sites not given)); assay: PD-L1 binding ELISA, antibody coated, biotin-PDL1-FC titrated
T3 sequence (Q9NZQ7 19-238 limits assumed): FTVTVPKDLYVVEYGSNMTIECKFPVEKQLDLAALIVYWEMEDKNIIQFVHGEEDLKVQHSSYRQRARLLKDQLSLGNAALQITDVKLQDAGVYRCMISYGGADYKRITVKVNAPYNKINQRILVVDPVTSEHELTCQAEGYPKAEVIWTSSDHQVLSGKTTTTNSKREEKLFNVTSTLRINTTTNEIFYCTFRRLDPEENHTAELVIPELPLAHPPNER

[14] = molecular target: T4, PD-L1 Protein, Human, Recombinant (His Tag) (human, UniProt Q9NZQ7 19-239); assay: SPR Biacore T200, antibody captured, PD-L1 His as analyte, 1:1 binding
T4 construct: Bought protein; also called QPP09.1; SinoBiologic 10084-H08H
T4 sequence (Q9NZQ7 19-239 limits assumed): as the sequence (G7PSE7 entry or part of it) above, with T33A, S34A, N62S, Q68R, R82Q, L173F, A185T, I192T, L215H counted along it

[15] = molecular target: T5, PD-L1 Protein, Cynomolgus, Recombinant (His Tag) (cynomolgus); assay: as above
T5 construct: Bought protein; also called QPP10.1; SinoBiologic 90251-C08H

[16] = molecular target: T3, Biotin QP004.3 (biotin-PDL1-FC); assay: PD-L1/PD-1 blocking ELISA, PD1-FC coated; row labelled EC50; competitor PD1-FC
[17] = molecular target: T1, Claudin 18.2 (CLDN18.2), expressed on …; assay: cell-based or functional assay

Binder	EC50 [1] [µg/mL]	max [1]	FACS reading [2]	FACS reading [3]	MFI [4]	FACS reading [5]	FACS reading [6]	FACS reading [7]	FACS reading [8]	FACS reading [9]	FACS reading [10]	CLDN18.2/CLDN18.1 (MFI ratio) [11]	binding result [12]	also measured
QP190191 (antibody, human IgG1, V domains shown, Chimeric; also called 36A2; mouse-derived chimeric antibody QP190191) VH: EVKLVESGGGLVKPGGSLKLSCAASGFTFSNYAMSWVRQTPEKRLEWVASIISGGRTYYLDSEKGRFTISRDNARNNLYLQMSSLRSEDTAMYYCTRIYYGNSFDYWGQGTTLTVSS VL: DIVMTQSPSSQTVTAGEKVTMSCKSSQSLLNSGNQKNYLTWYQQKPGQPPKLLIYWASTRESGVPDRFTGSGSGTDFTLTISNMQAEDLAVYYCQNDYSYPFTFGSGTKLEIK	0.354	148000	148000	88700	450000	2840	8000	15700	54200	114000	729	423	–	–
QP322 (Fc fusion, Humanized from QP1162; also called 1162-V3; humanized nanobody QP322; not shown: human IgG1-FC constant region fused to the C terminal of the VHH) EVQLLESGGGLVQPGGSLRLSCAASGFTYGTYAMSWFRQAPGKGREGVACIDIYGRASYTDPVKGRFTISQDNSKNTLYLQMNSLKAEDTAVYYCAARDFGYCTASWVHEGFSRYWGQGTLVTVSS	–	–	–	–	–	–	–	–	–	–	–	–	binds	–
QP322 (Fc fusion, Humanization design of QP1162; VHH at the N-terminal of FC; also called 1162-V3; QD322; not shown: human IgG1-FC constant region fused to the C terminal of the VHH) EVQLLESGGGLVQPGGSLRLSCAASGFTYGTYAMSWFRQAPGKGREGVACIDIYGRASYTDPVKGRFTISQDNSKNTLYLQMNSLKAEDTAVYYCAARDFGYCTASWVHEGFSRYWGQGTLVTVSS	–	–	–	–	–	–	–	–	–	–	–	–	–	EC50 [13]: 0.00753 µg/mL; Kd [14]: 2.37 nM; koff [14]: 0.00311 s⁻¹; kon [14]: 1.31e+06 M⁻¹ s⁻¹; Kd [15]: 5.39 nM; koff [15]: 0.00354 s⁻¹; kon [15]: 657000 M⁻¹ s⁻¹; IC50 [16]: 5.12 nM
QP325 (Fc fusion, Humanized from QP1166; also called 1166-V3; humanized antibody QP325; not shown: human IgG1-FC constant region fused to the C terminal of the VHH) EVQLLESGGGLVQPGGSLRLSCAASGFTYGTYAMSWFRQAPGKGLEGVACIDIYGRTSYTDPVKGRFTISQDNSKNTLYLQMNSLRAEDTAVYYCAARDFGYCTASWVHEGFSRYWGQGTLVTVSS	–	–	–	–	–	–	–	–	–	–	–	–	binds	–
QP1162 (VHH, also called nanobody QP1162; camel nanobody QP1162) VHH: QVQLVESGGGSVQSGGSLRLSCAASGFTYGTYAMSWFRQAPGKEREGVACIDIYGRASYTDPVKGRFTISQDNAKNTLYLQMNSLKPEDTAMYYCAARDFGYCTASWVHEGFSRYWGQGTQVTVSS	–	–	–	–	–	–	–	–	–	–	–	–	binds	–
QP14371435 (antibody, human IgG1, kappa, V domains shown, Humanized from QP190191) VH: EVQLVESGGGLVKPGGSLRLSCAASGFTFSNYAMSWVRQAPGKGLEWVASIISGGRTYYLDSEKGRFTISRDNAKNSLYLQMNSLRAEDTAVYYCTRIYYGNSFDYWGQGTLVTVSS VL: DIVMTQSPDSLAVSLGERATISCKSSQSLLNSGNQKNYLTWYQQKPGQPPKLLIYWASTRESGVPDRFTGSGSGTDFTLTISSLQAEDVAVYYCQNDYSYPFTFGQGTKLEIKR	0.38	197000	197000	134000	512000	4130	10200	18000	72000	145000	732	497	–	–
QP14361435 (antibody, human IgG1, kappa, V domains shown, Humanized from QP190191) VH: EVQLVESGGGLVKPGGSLRLSCAASGFTFSNYAMSWVRQAPGKGLEWVSSIISGGRTYYLDSEKGRFTISRDNAKNSLYLQMNSLRAEDTAVYYCTRIYYGNSFDYWGQGTLVTVSS VL: DIVMTQSPDSLAVSLGERATISCKSSQSLLNSGNQKNYLTWYQQKPGQPPKLLIYWASTRESGVPDRFTGSGSGTDFTLTISSLQAEDVAVYYCQNDYSYPFTFGQGTKLEIKR	0.466	182000	182000	183000	504000	3390	8520	23600	75900	141000	713	550	–	–
QP14371433 (antibody, human IgG1, kappa, V domains shown, Humanized from QP190191; also called QP14331437) VH: EVQLVESGGGLVKPGGSLRLSCAASGFTFSNYAMSWVRQAPGKGLEWVASIISGGRTYYLDSEKGRFTISRDNAKNSLYLQMNSLRAEDTAVYYCTRIYYGNSFDYWGQGTLVTVSS VL: DIVMTQSPDSLAVSLGERATINCKSSQSLLNSGNQKNYLTWYQQKPGQPPKLLIYWASTRESGVPDRFSGSGSGTDFTLTISSLQAEDVAVYYCQNDYSYPFTFGQGTKLEIKR	0.36	174000	174000	115000	433000	3730	10800	17700	65900	133000	754	448	–	EC50 of killing, ADCC (PBMC, HEK293-CLDN18.2 cells) [17]: 0.0162 µg/mL; Killing percentage, ADCC (PBMC, HEK293-CLDN18.2 cells), 0 µg/ml [17]: 9.02%; Killing percentage, ADCC (PBMC, HEK293-CLDN18.2 cells), 0.0001024 µg/ml [17]: 8.31%; Killing percentage, ADCC (PBMC, HEK293-CLDN18.2 cells), 0.000512 µg/ml [17]: 10.5%; Killing percentage, ADCC (PBMC, HEK293-CLDN18.2 cells), 0.00256 µg/ml [17]: 13.3%; Killing percentage, ADCC (PBMC, HEK293-CLDN18.2 cells), 0.0128 µg/ml [17]: 31.3%; Killing percentage, ADCC (PBMC, HEK293-CLDN18.2 cells), 0.064 µg/ml [17]: 41.5%; Killing percentage, ADCC (PBMC, HEK293-CLDN18.2 cells), 0.32 µg/ml [17]: 49.6%; Killing percentage, ADCC (PBMC, HEK293-CLDN18.2 cells), 1.6 µg/ml [17]: 56.4%; Killing percentage, ADCC (PBMC, HEK293-CLDN18.2 cells), 8 µg/ml [17]: 53.8%; Killing percentage, ADCC (PBMC, HEK293-CLDN18.2 cells), 40 µg/ml [17]: 52.3%
